Here are results for one molecule from patent US20210346432A1.

One test has as its target T1, ET140-p25 (human).
T1 sequence (peptide, N-terminal biotin): SGSGLRCSSNTPPLTCQRY
The experiment in a line: peptide ELISA on streptavidin plate, antibody 1 ug/mL.

Another test concerns the target T2, ET140-p26 (human).
T2 sequence (peptide, N-terminal biotin): SGSGRCSSNTPPLTCQRYC
The test is described as above.

B1: ET140-153 mIgG1 (antibody, V domains shown)
VH: QVQLVQSGAEVKKPGSSVKVSCKASGGTFSSYAISWVRQAPGQGLEWMGRIIPILGIANYAQKFQGRVTITADKSTSTAYMELSSLRSEDTAVYYCARGGYYSHDMWSEDWGQGTLVTVSS
VL: LPVLTQPPSASGTPGQRVTISCSGRSSNIGSNSVNWYRQLPGAAPKLLIYSNNQRPPGVPVRFSGSKSGTSASLAISGLQSEDEATYYCATWDDNLNVHYVFGTGTKVTVLG
B1: the A450 with ET140-p25 (human) stood at 0.583; with ET140-p26 (human), 0.225.
